The values that follow are results of earlier work, collected in US20250282866A1, “TREATMENT OF DISEASES RELATED TO ATP-BINDING CASSETTE TRANSPORTER 1 DYSFUNCTION USING TREM2 AGONISTS” (VIGIL NEUROSCIENCE, INC., priority 2020, published 2025).

This data set addresses T1, human TREM2 (Homo sapiens, UniProt Q9NZC2).
T1 sequence (Q9NZC2 19-230): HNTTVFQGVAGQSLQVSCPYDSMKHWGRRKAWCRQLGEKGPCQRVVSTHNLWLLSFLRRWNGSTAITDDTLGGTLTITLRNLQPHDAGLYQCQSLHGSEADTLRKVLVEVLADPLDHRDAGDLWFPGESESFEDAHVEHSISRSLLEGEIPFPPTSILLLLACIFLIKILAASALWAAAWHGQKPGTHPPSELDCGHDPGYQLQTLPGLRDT
Particulars: for Binding Signal (fold over 6E7 Parental antibody) 1st screen 110 nM or 10 nM: values printed without asterisk, concentration 110 nM or 10 nM (footnote a not given).

B1: V26: 6E7 variant: VH A35G, I50T, F102M, Y112A; VL N56R, F94Y (antibody, V domains shown)
VH: EVQLVQSGAEVKKPGESLKISCKGSGYSFTSYWIGWVRQMPGKGLEWMGTIYPGDSDTRYSPSFQGQVTISADKSISTAYLQWSSLKASDTAMYFCARQRTMYYDSSDYFDAWGQGTLVTVSS
VL: DIQMTQSPSSVSASVGDRVTITCRASQGISSWLAWYQQKPGKAPKLLIYAASSLQRGVPSRFSGSGSGTDFTLTISSLQPEDFATYFCQQADSYPRTFGQGTKLEIK
B1: the “Binding Signal (fold over 6E7 Parental antibody) 1st screen 110 nM or 10 nM” value is 3.57 fold over 6E7 Parental antibod, the “Binding Signal (fold over 6E7 Parental antibody) 2nd screen 2 nM” value is on record as 2.83 fold over 6E7 Parental antibod and the “Binding Signal (fold over 6E7 Parental antibody) 2nd screen 10 nM” value is 3.47 fold over 6E7 Parental antibod.

B2: V39: 6E7 variant: VH T30G, S61N, Q99G; VL Q55V, F94S (antibody, V domains shown)
VH: EVQLVQSGAEVKKPGESLKISCKGSGYSFGSYWIAWVRQMPGKGLEWMGIIYPGDSDTRYNPSFQGQVTISADKSISTAYLQWSSLKASDTAMYFCARGRTFYYDSSDYFDYWGQGTLVTVSS
VL: DIQMTQSPSSVSASVGDRVTITCRASQGISSWLAWYQQKPGKAPKLLIYAASSLVNGVPSRFSGSGSGTDFTLTISSLQPEDFATYFCQQADSSPRTFGQGTKLEIK
As for B2, the “Binding Signal (fold over 6E7 Parental antibody) 1st screen 110 nM or 10 nM” value is 6.15 fold over 6E7 Parental antibod, the “Binding Signal (fold over 6E7 Parental antibody) 2nd screen 2 nM” value is 5.11 fold over 6E7 Parental antibod and the “Binding Signal (fold over 6E7 Parental antibody) 2nd screen 10 nM” value is listed as 5.81 fold over 6E7 Parental antibod.

B3: V37: 6E7 variant: VH F29H, Q65A, Q99S; VL N56W, F94Y (antibody, V domains shown)
VH: EVQLVQSGAEVKKPGESLKISCKGSGYSHTSYWIAWVRQMPGKGLEWMGIIYPGDSDTRYSPSFAGQVTISADKSISTAYLQWSSLKASDTAMYFCARSRTFYYDSSDYFDYWGQGTLVTVSS
VL: DIQMTQSPSSVSASVGDRVTITCRASQGISSWLAWYQQKPGKAPKLLIYAASSLQWGVPSRFSGSGSGTDFTLTISSLQPEDFATYFCQQADSYPRTFGQGTKLEIK
For the molecule B3, the “Binding Signal (fold over 6E7 Parental antibody) 1st screen 110 nM or 10 nM” value was 3.46 fold over 6E7 Parental antibod, the “Binding Signal (fold over 6E7 Parental antibody) 2nd screen 2 nM” value is listed as 3.69 fold over 6E7 Parental antibod and the “Binding Signal (fold over 6E7 Parental antibody) 2nd screen 10 nM” value is 3.49 fold over 6E7 Parental antibod.

B4: V50: 6E7 variant: VH T30G, I50V, F110L; VL L54R, F94L (antibody, V domains shown)
VH: EVQLVQSGAEVKKPGESLKISCKGSGYSFGSYWIAWVRQMPGKGLEWMGVIYPGDSDTRYSPSFQGQVTISADKSISTAYLQWSSLKASDTAMYFCARQRTFYYDSSDYLDYWGQGTLVTVSS
VL: DIQMTQSPSSVSASVGDRVTITCRASQGISSWLAWYQQKPGKAPKLLIYAASSRQNGVPSRFSGSGSGTDFTLTISSLQPEDFATYFCQQADSLPRTFGQGTKLEIK
For the molecule B4, the “Binding Signal (fold over 6E7 Parental antibody) 1st screen 110 nM or 10 nM” value is given as 4.10 fold over 6E7 Parental antibod, the “Binding Signal (fold over 6E7 Parental antibody) 2nd screen 2 nM” value is 3.39 fold over 6E7 Parental antibod and the “Binding Signal (fold over 6E7 Parental antibody) 2nd screen 10 nM” value was 4.16 fold over 6E7 Parental antibod.

B5: V48: 6E7 variant: VH T30G, T58V, Q99M; VL N56T, F94L (antibody, V domains shown)
VH: EVQLVQSGAEVKKPGESLKISCKGSGYSFGSYWIAWVRQMPGKGLEWMGIIYPGDSDVRYSPSFQGQVTISADKSISTAYLQWSSLKASDTAMYFCARMRTFYYDSSDYFDYWGQGTLVTVSS
VL: DIQMTQSPSSVSASVGDRVTITCRASQGISSWLAWYQQKPGKAPKLLIYAASSLQTGVPSRFSGSGSGTDFTLTISSLQPEDFATYFCQQADSLPRTFGQGTKLEIK
Consider B5, for which the “Binding Signal (fold over 6E7 Parental antibody) 1st screen 110 nM or 10 nM” value is on record as 2.42 fold over 6E7 Parental antibod, the “Binding Signal (fold over 6E7 Parental antibody) 2nd screen 2 nM” value is listed as 2.30 fold over 6E7 Parental antibod and the “Binding Signal (fold over 6E7 Parental antibody) 2nd screen 10 nM” value was 2.54 fold over 6E7 Parental antibod.

B6: V40: 6E7 variant: VH T30G, T58V, F110S; VL N56L, S93R (antibody, V domains shown)
VH: EVQLVQSGAEVKKPGESLKISCKGSGYSFGSYWIAWVRQMPGKGLEWMGIIYPGDSDVRYSPSFQGQVTISADKSISTAYLQWSSLKASDTAMYFCARQRTFYYDSSDYSDYWGQGTLVTVSS
VL: DIQMTQSPSSVSASVGDRVTITCRASQGISSWLAWYQQKPGKAPKLLIYAASSLQLGVPSRFSGSGSGTDFTLTISSLQPEDFATYFCQQADRFPRTFGQGTKLEIK
For the molecule B6, the “Binding Signal (fold over 6E7 Parental antibody) 1st screen 110 nM or 10 nM” value is given as 4.48 fold over 6E7 Parental antibod, the “Binding Signal (fold over 6E7 Parental antibody) 2nd screen 2 nM” value was 3.41 fold over 6E7 Parental antibod and the “Binding Signal (fold over 6E7 Parental antibody) 2nd screen 10 nM” value was 4.16 fold over 6E7 Parental antibod.

B7: V38: 6E7 variant: VH T30G, T58V; VL L54R, F94H (antibody, V domains shown)
VH: EVQLVQSGAEVKKPGESLKISCKGSGYSFGSYWIAWVRQMPGKGLEWMGIIYPGDSDVRYSPSFQGQVTISADKSISTAYLQWSSLKASDTAMYFCARQRTFYYDSSDYFDYWGQGTLVTVSS
VL: DIQMTQSPSSVSASVGDRVTITCRASQGISSWLAWYQQKPGKAPKLLIYAASSRQNGVPSRFSGSGSGTDFTLTISSLQPEDFATYFCQQADSHPRTFGQGTKLEIK
Consider B7, for which the “Binding Signal (fold over 6E7 Parental antibody) 1st screen 110 nM or 10 nM” value was 4.34 fold over 6E7 Parental antibod, the “Binding Signal (fold over 6E7 Parental antibody) 2nd screen 2 nM” value is 3.44 fold over 6E7 Parental antibod and the “Binding Signal (fold over 6E7 Parental antibody) 2nd screen 10 nM” value was 4.36 fold over 6E7 Parental antibod.

B8: V28: 6E7 variant: VH T30Q, I50T, Y103F; VL N56S, F94L (antibody, V domains shown)
VH: EVQLVQSGAEVKKPGESLKISCKGSGYSFQSYWIAWVRQMPGKGLEWMGTIYPGDSDTRYSPSFQGQVTISADKSISTAYLQWSSLKASDTAMYFCARQRTFFYDSSDYFDYWGQGTLVTVSS
VL: DIQMTQSPSSVSASVGDRVTITCRASQGISSWLAWYQQKPGKAPKLLIYAASSLQSGVPSRFSGSGSGTDFTLTISSLQPEDFATYFCQQADSLPRTFGQGTKLEIK
On to B8, for which the “Binding Signal (fold over 6E7 Parental antibody) 1st screen 110 nM or 10 nM” value is 3.08 fold over 6E7 Parental antibod, the “Binding Signal (fold over 6E7 Parental antibody) 2nd screen 2 nM” value was 2.63 fold over 6E7 Parental antibod and the “Binding Signal (fold over 6E7 Parental antibody) 2nd screen 10 nM” value is on record as 3.61 fold over 6E7 Parental antibod.

B9: V36: 6E7 variant: VH I34L, Q99S; VL L54R, F94Y (antibody, V domains shown)
VH: EVQLVQSGAEVKKPGESLKISCKGSGYSFTSYWLAWVRQMPGKGLEWMGIIYPGDSDTRYSPSFQGQVTISADKSISTAYLQWSSLKASDTAMYFCARSRTFYYDSSDYFDYWGQGTLVTVSS
VL: DIQMTQSPSSVSASVGDRVTITCRASQGISSWLAWYQQKPGKAPKLLIYAASSRQNGVPSRFSGSGSGTDFTLTISSLQPEDFATYFCQQADSYPRTFGQGTKLEIK
In the case of B9, the “Binding Signal (fold over 6E7 Parental antibody) 1st screen 110 nM or 10 nM” value is 3.38 fold over 6E7 Parental antibod, the “Binding Signal (fold over 6E7 Parental antibody) 2nd screen 2 nM” value is recorded as 4.00 fold over 6E7 Parental antibod and the “Binding Signal (fold over 6E7 Parental antibody) 2nd screen 10 nM” value is given as 3.44 fold over 6E7 Parental antibod.

B10: V51: 6E7 variant: VH T58V, Q99G, Y112N; VL L54R (antibody, V domains shown)
VH: EVQLVQSGAEVKKPGESLKISCKGSGYSFTSYWIAWVRQMPGKGLEWMGIIYPGDSDVRYSPSFQGQVTISADKSISTAYLQWSSLKASDTAMYFCARGRTFYYDSSDYFDNWGQGTLVTVSS
VL: DIQMTQSPSSVSASVGDRVTITCRASQGISSWLAWYQQKPGKAPKLLIYAASSRQNGVPSRFSGSGSGTDFTLTISSLQPEDFATYFCQQADSFPRTFGQGTKLEIK
B10: the “Binding Signal (fold over 6E7 Parental antibody) 1st screen 110 nM or 10 nM” value is recorded as 2.81 fold over 6E7 Parental antibod, the “Binding Signal (fold over 6E7 Parental antibody) 2nd screen 2 nM” value was 1.83 fold over 6E7 Parental antibod and the “Binding Signal (fold over 6E7 Parental antibody) 2nd screen 10 nM” value was 3.18 fold over 6E7 Parental antibod.

B11: V49: 6E7 variant: VH T30N, I50T, Y60L, Q99S; VL L54R, F94Y (antibody, V domains shown)
VH: EVQLVQSGAEVKKPGESLKISCKGSGYSFNSYWIAWVRQMPGKGLEWMGTIYPGDSDTRLSPSFQGQVTISADKSISTAYLQWSSLKASDTAMYFCARSRTFYYDSSDYFDYWGQGTLVTVSS
VL: DIQMTQSPSSVSASVGDRVTITCRASQGISSWLAWYQQKPGKAPKLLIYAASSRQNGVPSRFSGSGSGTDFTLTISSLQPEDFATYFCQQADSYPRTFGQGTKLEIK
Regarding B11, the “Binding Signal (fold over 6E7 Parental antibody) 1st screen 110 nM or 10 nM” value is reported as 6.51 fold over 6E7 Parental antibod, the “Binding Signal (fold over 6E7 Parental antibody) 2nd screen 2 nM” value is on record as 5.02 fold over 6E7 Parental antibod and the “Binding Signal (fold over 6E7 Parental antibody) 2nd screen 10 nM” value is listed as 6.58 fold over 6E7 Parental antibod.

B12: V27: 6E7 variant: VH S61A, Q99S; VL N56R (antibody, V domains shown)
VH: EVQLVQSGAEVKKPGESLKISCKGSGYSFTSYWIAWVRQMPGKGLEWMGIIYPGDSDTRYAPSFQGQVTISADKSISTAYLQWSSLKASDTAMYFCVRSRTFYYDSSDYFDYWGQGTLVTVSS
VL: DIQMTQSPSSVSASVGDRVTITCRASQGISSWLAWYQQKPGKAPKLLIYAASSLQRGVPSRFSGSGSGTDFTLTISSLQPEDFATYFCQQADSFPRTFGQGTKLEIK
Regarding B12, the “Binding Signal (fold over 6E7 Parental antibody) 1st screen 110 nM or 10 nM” value is on record as 5.50 fold over 6E7 Parental antibod, the “Binding Signal (fold over 6E7 Parental antibody) 2nd screen 2 nM” value is listed as 5.67 fold over 6E7 Parental antibod and the “Binding Signal (fold over 6E7 Parental antibody) 2nd screen 10 nM” value is 5.69 fold over 6E7 Parental antibod.
